Test results: patent US20180155451A1 (published 2018)

T1: FcγRIIa H (FcγRIIa, type H allotype, His at position 131), extracellular domain with C-terminal His tag (human, UniProt P12318 34-217)
T1 construct: extracellular domain; Soluble receptor expressed in FreeStyle293 cells; analyte in Biacore; also called FcgRIIa H; 2aH; not shown: C-terminal His tag
T1 sequence (looked up): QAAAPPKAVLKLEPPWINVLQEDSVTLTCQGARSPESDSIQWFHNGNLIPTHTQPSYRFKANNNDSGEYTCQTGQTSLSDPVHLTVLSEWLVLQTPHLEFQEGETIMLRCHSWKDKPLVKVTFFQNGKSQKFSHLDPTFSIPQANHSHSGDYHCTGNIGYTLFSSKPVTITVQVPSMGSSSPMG

T2: FcγRIIb, extracellular domain with C-terminal His tag (human, UniProt P31994 43-217)
T2 construct: extracellular domain; Soluble receptor expressed in FreeStyle293 cells; analyte in Biacore; also called FcgRIIb; 2b; not shown: C-terminal His tag
T2 sequence (looked up): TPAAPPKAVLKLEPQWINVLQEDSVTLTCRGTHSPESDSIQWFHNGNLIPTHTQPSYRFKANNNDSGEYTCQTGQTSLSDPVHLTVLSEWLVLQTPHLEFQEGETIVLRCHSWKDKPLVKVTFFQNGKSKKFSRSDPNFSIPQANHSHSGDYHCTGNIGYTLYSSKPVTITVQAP

T3: FcγRIIb (human, UniProt P31994 43-217)
T3 construct: extracellular domain; Soluble extracellular domain with C-terminal His tag, used as analyte in Biacore; also called FcgRIIb; 2b; not shown: His tag attached to the C terminus
T3 sequence (looked up): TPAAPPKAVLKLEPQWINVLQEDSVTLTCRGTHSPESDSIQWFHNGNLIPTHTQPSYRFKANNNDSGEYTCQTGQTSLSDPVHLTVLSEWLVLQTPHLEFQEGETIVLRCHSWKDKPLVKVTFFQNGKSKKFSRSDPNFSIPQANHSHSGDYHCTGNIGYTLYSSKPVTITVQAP


Tests used:
[1] = molecular target: T1, FcγRIIa H (FcγRIIa, type H allotype, …); experiment: SPR (Biacore), captured antibody, FcγR as analyte
[2] = molecular target: T2, FcγRIIb, extracellular domain with …; experiment: SPR (Biacore), captured antibody, FcγR as analyte
[3] = molecular target: T1, FcγRIIa H (FcγRIIa, type H allotype, …); experiment: ratio of He/Con_2aH to He/Con_2b (FcγRIIa H over FcγRIIb), SPR
FcγRIIb = molecular target: T3, FcγRIIb; experiment: SPR (Biacore), antibody captured on antigen peptide, FcγR as analyte; relative to GpH7-A5/GpH7-B3/GpL16-k0 = 100
FcγRIa = molecular target: T4, FcγRIa (human, UniProt P12314 16-292); experiment: as above
T4 construct: extracellular domain; Soluble extracellular domain with C-terminal His tag, used as analyte in Biacore; also called FcgRI; 1a; not shown: His tag attached to the C terminus
T4 sequence (P12314 16-292): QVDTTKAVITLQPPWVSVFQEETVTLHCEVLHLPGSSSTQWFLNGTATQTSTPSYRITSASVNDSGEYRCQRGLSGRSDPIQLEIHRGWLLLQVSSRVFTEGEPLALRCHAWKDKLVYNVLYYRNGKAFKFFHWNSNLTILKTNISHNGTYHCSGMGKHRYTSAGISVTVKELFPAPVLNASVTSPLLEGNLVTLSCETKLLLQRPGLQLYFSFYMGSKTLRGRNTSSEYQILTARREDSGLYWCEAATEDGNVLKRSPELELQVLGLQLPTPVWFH

Binder	He/Con_2aH [1]	He/Con_2b [2]	He_2aH/2b (IIaH/IIb) [3]	He/Con_2b (FcγRIIb)	He/Con_1a (FcγRIa)
GpH7-A5/GpH7-B3 variant N325_06M/GpL16-k0 (antibody, human IgG1, kappa, Heterodimerized IgG1; mutation in the GpH7-B3 H chain only; also called He Ab) heavy 1: not shown heavy 2: not shown light: DIVMTQSPLSLPVTPGEPASISCQASESLVHSNRNTYLHWYLQKPGQSPQLLIYKVSNRFSGVPDRFSGSGSGTDFTLKISRVEAEDVGVYYCSQNTHVPPTFGQGTKVEIERTVAAPSVFIFPPSDEQLKSGTASVVCLLNNFYPREAKVQWKVDNALQSGNSQESVTEQDSKDSTYSLSSTLTLSKADYEKHKVYACEVTHQGLSSPVTKSFNRGEC				217 % of control	97.6 % of control
GpH7-A5/GpH7-B3 variant G237_13S/GpL16-k0 (antibody, human IgG1, kappa, Heterodimerized IgG1; mutation in the GpH7-B3 H chain only; also called He Ab) heavy 1: not shown heavy 2: not shown light: DIVMTQSPLSLPVTPGEPASISCQASESLVHSNRNTYLHWYLQKPGQSPQLLIYKVSNRFSGVPDRFSGSGSGTDFTLKISRVEAEDVGVYYCSQNTHVPPTFGQGTKVEIERTVAAPSVFIFPPSDEQLKSGTASVVCLLNNFYPREAKVQWKVDNALQSGNSQESVTEQDSKDSTYSLSSTLTLSKADYEKHKVYACEVTHQGLSSPVTKSFNRGEC				111 % of control	92.2 % of control
GpH7-A5/GpH7-B3 variant N325_04F/GpL16-k0 (antibody, human IgG1, kappa, Heterodimerized IgG1; mutation in the GpH7-B3 H chain only; also called He Ab) heavy 1: not shown heavy 2: not shown light: DIVMTQSPLSLPVTPGEPASISCQASESLVHSNRNTYLHWYLQKPGQSPQLLIYKVSNRFSGVPDRFSGSGSGTDFTLKISRVEAEDVGVYYCSQNTHVPPTFGQGTKVEIERTVAAPSVFIFPPSDEQLKSGTASVVCLLNNFYPREAKVQWKVDNALQSGNSQESVTEQDSKDSTYSLSSTLTLSKADYEKHKVYACEVTHQGLSSPVTKSFNRGEC				143 % of control	93.2 % of control
GpH7-A5/GpH7-B3 variant A327_01G/GpL16-k0 (antibody, human IgG1, kappa, Heterodimerized IgG1; mutation in the GpH7-B3 H chain only; also called He Ab) heavy 1: not shown heavy 2: not shown light: DIVMTQSPLSLPVTPGEPASISCQASESLVHSNRNTYLHWYLQKPGQSPQLLIYKVSNRFSGVPDRFSGSGSGTDFTLKISRVEAEDVGVYYCSQNTHVPPTFGQGTKVEIERTVAAPSVFIFPPSDEQLKSGTASVVCLLNNFYPREAKVQWKVDNALQSGNSQESVTEQDSKDSTYSLSSTLTLSKADYEKHKVYACEVTHQGLSSPVTKSFNRGEC				116 % of control	99 % of control

The remaining lines, values ahead:

He/Con_2aH [1]	He/Con_2b [2]	He_2aH/2b (IIaH/IIb) [3]	He/Con_2b (FcγRIIb)	He/Con_1a (FcγRIa)	Binder
108 relative, GpH7-A5/GpH7-B3/GpL16-k0 = 100	73.6 relative, GpH7-A5/GpH7-B3/GpL16-k0 = 100	1.47			GpH7-A5/GpH7-B3 variant Y300_08L/GpL16-k0 (antibody, human IgG1, kappa, Heterodimerized IgG1; mutation only in the GpH7-B3 chain; also called He Ab) heavy 1: not shown heavy 2: not shown light: DIVMTQSPLSLPVTPGEPASISCQASESLVHSNRNTYLHWYLQKPGQSPQLLIYKVSNRFSGVPDRFSGSGSGTDFTLKISRVEAEDVGVYYCSQNTHVPPTFGQGTKVEIERTVAAPSVFIFPPSDEQLKSGTASVVCLLNNFYPREAKVQWKVDNALQSGNSQESVTEQDSKDSTYSLSSTLTLSKADYEKHKVYACEVTHQGLSSPVTKSFNRGEC
			171 % of control	94.8 % of control	GpH7-A5/GpH7-B3 variant N325_07I/GpL16-k0 (antibody, human IgG1, kappa, Heterodimerized IgG1; mutation in the GpH7-B3 H chain only; also called He Ab) heavy 1: not shown heavy 2: not shown light: DIVMTQSPLSLPVTPGEPASISCQASESLVHSNRNTYLHWYLQKPGQSPQLLIYKVSNRFSGVPDRFSGSGSGTDFTLKISRVEAEDVGVYYCSQNTHVPPTFGQGTKVEIERTVAAPSVFIFPPSDEQLKSGTASVVCLLNNFYPREAKVQWKVDNALQSGNSQESVTEQDSKDSTYSLSSTLTLSKADYEKHKVYACEVTHQGLSSPVTKSFNRGEC
			115 % of control	96 % of control	GpH7-A5/GpH7-B3 variant P238_16H/GpL16-k0 (antibody, human IgG1, kappa, Heterodimerized IgG1; mutation in the GpH7-B3 H chain only; also called He Ab) heavy 1: not shown heavy 2: not shown light: DIVMTQSPLSLPVTPGEPASISCQASESLVHSNRNTYLHWYLQKPGQSPQLLIYKVSNRFSGVPDRFSGSGSGTDFTLKISRVEAEDVGVYYCSQNTHVPPTFGQGTKVEIERTVAAPSVFIFPPSDEQLKSGTASVVCLLNNFYPREAKVQWKVDNALQSGNSQESVTEQDSKDSTYSLSSTLTLSKADYEKHKVYACEVTHQGLSSPVTKSFNRGEC
			110 % of control	97.6 % of control	GpH7-A5/GpH7-B3 variant P238_19Q/GpL16-k0 (antibody, human IgG1, kappa, Heterodimerized IgG1; mutation in the GpH7-B3 H chain only; also called He Ab) heavy 1: not shown heavy 2: not shown light: DIVMTQSPLSLPVTPGEPASISCQASESLVHSNRNTYLHWYLQKPGQSPQLLIYKVSNRFSGVPDRFSGSGSGTDFTLKISRVEAEDVGVYYCSQNTHVPPTFGQGTKVEIERTVAAPSVFIFPPSDEQLKSGTASVVCLLNNFYPREAKVQWKVDNALQSGNSQESVTEQDSKDSTYSLSSTLTLSKADYEKHKVYACEVTHQGLSSPVTKSFNRGEC
